The values that follow are results of earlier work, collected in article PMC3050594.

Read-outs that look alike come from different tables or passages of the source.

In data set [1] the target is RSV F glycoprotein (Human respiratory syncytial virus) (UniProt P03420).
Data set [2] has the same target. This is another data set of the same source.

For orientation: Kd means the constant that tells how readily two partners part at equilibrium. Regarding motavizumab, in data set [1], the Kd is 0.035 nM. Take palivizumab: the Kd in data set [2] is 1.4 nM.
